T1: MsmUdgX F4 (Mycobacterium smegmatis mc2 155, UniProt A0QP43 1-209, Q53A)
T1 sequence: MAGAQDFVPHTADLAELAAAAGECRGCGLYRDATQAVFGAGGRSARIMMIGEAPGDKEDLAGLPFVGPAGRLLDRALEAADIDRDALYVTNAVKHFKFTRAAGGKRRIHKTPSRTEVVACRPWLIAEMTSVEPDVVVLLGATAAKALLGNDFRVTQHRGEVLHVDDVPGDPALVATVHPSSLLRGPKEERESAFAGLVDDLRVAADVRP

T2: MsmUdgX (Mycobacterium smegmatis mc2 155, UniProt A0QP43 1-209)
T2 sequence: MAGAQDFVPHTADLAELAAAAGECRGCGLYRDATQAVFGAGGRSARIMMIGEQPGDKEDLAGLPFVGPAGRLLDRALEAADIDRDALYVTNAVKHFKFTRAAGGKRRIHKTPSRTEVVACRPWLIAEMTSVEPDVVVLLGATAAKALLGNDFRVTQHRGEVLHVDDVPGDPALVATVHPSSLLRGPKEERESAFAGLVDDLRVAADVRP

B1: SSU9 (ssDNA)
DNA: CTCAAGTGUAGGCATGCAAGAGCT
modifications: deoxyuridine at position 9
B2: SSU9:G (dsDNA)
DNA 1: CTCAAGTGUAGGCATGCAAGAGCT
DNA 2: CTTGCATGCCTGCACTTGAGTGCA
modifications: deoxyuridine at position 9 opposite G
B3: pTUTT (ssDNA)
DNA: TUTT
modifications: deoxyuridine at position 2; 5' phosphate

Assays:
MsmUdgX F4 = target: T1, MsmUdgX F4; test: 8 M urea-PAGE complex shift
MsmUdgX [1] = target: T2, MsmUdgX; test: 8 M urea-PAGE complex shift
MsmUdgX [2] = target: T2, MsmUdgX; test: SDS-PAGE complex shift

| Binder | binding result (MsmUdgX F4) | binding result (MsmUdgX [1]) | binding result (MsmUdgX [2]) |
| --- | --- | --- | --- |
| B1 | binds | binds |  |
| B2 |  | binds |  |
| B3 |  |  | binds |

— publication PMC4787834
